Measurements taken from patent US11597760 (dated 2023).

Tests used:
[1] = target: C5-K109A (human); test: other, Western blot
[2] = target: human C5 (human); test: SPR, pH 7.4, 37C
[3] = target: T1, cynomolgus C5 (cynomolgus monkey); test: SPR, pH 7.4, 37C
T1 chain: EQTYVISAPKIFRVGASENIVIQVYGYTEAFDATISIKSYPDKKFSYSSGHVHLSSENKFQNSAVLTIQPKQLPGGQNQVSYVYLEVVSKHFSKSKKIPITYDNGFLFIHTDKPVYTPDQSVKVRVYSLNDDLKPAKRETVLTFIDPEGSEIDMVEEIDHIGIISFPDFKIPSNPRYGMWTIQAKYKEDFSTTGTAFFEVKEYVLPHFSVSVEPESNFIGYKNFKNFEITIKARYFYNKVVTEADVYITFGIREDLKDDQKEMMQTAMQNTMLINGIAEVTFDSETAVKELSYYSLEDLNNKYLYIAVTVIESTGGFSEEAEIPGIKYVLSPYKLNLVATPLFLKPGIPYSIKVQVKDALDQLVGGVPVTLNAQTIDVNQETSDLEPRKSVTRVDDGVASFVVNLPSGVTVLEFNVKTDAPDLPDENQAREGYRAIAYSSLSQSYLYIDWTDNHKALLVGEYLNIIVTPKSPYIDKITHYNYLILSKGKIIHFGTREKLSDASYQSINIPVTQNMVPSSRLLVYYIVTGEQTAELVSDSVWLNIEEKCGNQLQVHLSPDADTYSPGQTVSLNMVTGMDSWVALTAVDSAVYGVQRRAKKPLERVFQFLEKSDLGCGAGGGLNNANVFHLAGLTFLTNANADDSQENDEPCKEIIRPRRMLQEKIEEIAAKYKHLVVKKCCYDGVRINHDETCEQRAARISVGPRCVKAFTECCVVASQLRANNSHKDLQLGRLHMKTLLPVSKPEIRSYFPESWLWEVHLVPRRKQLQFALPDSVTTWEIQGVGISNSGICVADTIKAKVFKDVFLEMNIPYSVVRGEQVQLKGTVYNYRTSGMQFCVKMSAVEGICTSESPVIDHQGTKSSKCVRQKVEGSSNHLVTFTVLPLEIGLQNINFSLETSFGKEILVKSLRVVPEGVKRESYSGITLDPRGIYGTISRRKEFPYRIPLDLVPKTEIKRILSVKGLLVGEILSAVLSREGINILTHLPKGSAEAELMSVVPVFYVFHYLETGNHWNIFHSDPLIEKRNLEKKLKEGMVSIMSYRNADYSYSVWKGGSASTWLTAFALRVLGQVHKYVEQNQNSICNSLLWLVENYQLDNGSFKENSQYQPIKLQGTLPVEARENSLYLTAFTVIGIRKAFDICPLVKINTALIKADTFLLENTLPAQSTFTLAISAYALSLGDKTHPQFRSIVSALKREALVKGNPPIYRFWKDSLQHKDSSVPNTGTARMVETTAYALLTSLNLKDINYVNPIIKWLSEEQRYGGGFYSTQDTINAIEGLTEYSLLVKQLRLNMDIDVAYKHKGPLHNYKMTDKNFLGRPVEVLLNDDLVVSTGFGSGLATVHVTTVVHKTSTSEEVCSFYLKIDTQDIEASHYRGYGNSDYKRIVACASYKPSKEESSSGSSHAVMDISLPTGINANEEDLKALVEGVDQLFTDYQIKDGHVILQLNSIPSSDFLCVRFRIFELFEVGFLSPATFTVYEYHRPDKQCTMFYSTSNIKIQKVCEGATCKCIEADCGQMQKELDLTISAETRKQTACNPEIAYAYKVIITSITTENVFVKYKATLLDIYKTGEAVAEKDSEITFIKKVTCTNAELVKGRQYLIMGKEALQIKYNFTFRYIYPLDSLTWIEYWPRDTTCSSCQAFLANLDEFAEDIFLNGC

[4] = target: C5-D51A (human); test: other, Western blot
[5] = target: human C5 (human); test: SPR, pH 5.8, 37C

binding result [1]: no binding
Kd [2]: 15.4 nM
Kd [3]: 5.54 nM
binding result [4]: no binding
Kd [5]: 430 nM
B1: CFA0305 (antibody, V domains shown)
VH: QSLEESGGDLVKPGASLAVTCTASGFSSSSSYYMCWVRQAPGKGLEWIGCIYTGSGATYYASWAKGRFTISKTSSTTVTLQMTSLTVADTATYFCASDGGYVTPTHAMYLWGPGTLVTVSS
VL: DVVMTQTPASVSAAVGGTVTIKCQASQNIGSDLAWYQQKPGQPPRLLIYGASKLASGVSSRFSGSGSGKEFTLTISDLECADAVTYYCQCTFVGSSYGNAFGGGTEVVVK
